13 molecules from patent publication US20210324054A1 can be followed below.

To fix the notation:
B1: Mutation 1-4 (antibody, V domains shown)
VH: EVQLQQPGPELVKPGASVKMSCKASGYTFTSSVIHWVRQKPGQGLEWIGYMNPYNDGLKYNEKFIGKAILTSDKSSSTAYMQLSSLTSEDSAVYYCTKEGLFYVMDYWGQGTSVTVSS
VL: QIVLTQSPAIMSASPGEKVTMTCSATSSLSYMHWYQQKSGTSPKRWIYDTSKLASGVPVRFSGSGSGTSYSLTISSMEAEDAATYFCQWWRSDLPTFGAGTKLELKR
B2: Mutation 1-8 (antibody, V domains shown)
VH: EVQLQQPGPELVKPGASVKMSCKASGYTFTSYVIHWVRQKPGQGLEWIGYMNPYNDGIKYNEKFIGKAILTSDKSSSTAYMQLSSLTSEDSAVYYCTREGLFYVMDYWGQGTSVTVSS
VL: QIVLTQSPAIMSASPGEKVTMTCSATSSVSYMHWYQQKSGTSPKRWIYDTSKLASGVPVRFSGSGSGTSYSLTISSMEAEDAATYFCQQWRSDLPTFGAGTKLELKR
B3: Mutation 1-13 (antibody, V domains shown)
VH: EVQLQQPGPELVKPGASVKMSCKASGYTFTSSVIHWVRQKPGQGLEWIGYMNPYNDGLKYNEKFIGKAILTSDKSSSTAYMQLSSLTSEDSAVYYCTREGLFYVFDYWGQGTSVTVSS
VL: QIVLTQSPAIMSASPGEKVTMTCSATSSLSYMHWYQQKSGTSPKRWIYDSSKLASGVPVRFSGSGSGTSYSLTISSMEAEDAATYFCQWWRSDLPTFGAGTKLELKR
B4: Mutation 1-14 (antibody, V domains shown)
VH: EVQLQQPGPELVKPGASVKMSCKASGYTFTSYVIHWVRQKPGQGLEWIGYMNPYNDGIKYNEKFIGKAILTSDKSSSTAYMQLSSLTSEDSAVYYCTKEGLFYVMDYWGQGTSVTVSS
VL: QIVLTQSPAIMSASPGEKVTMTCSATSSVSYMHWYQQKSGTSPKRWIYDSSKLASGVPVRFSGSGSGTSYSLTISSMEAEDAATYFCQQWRSDLPTFGAGTKLELKR
B5: Mutation 1-7 (antibody, V domains shown)
VH: EVQLQQPGPELVKPGASVKMSCKASGYTFTSSVIHWVRQKPGQGLEWIGYMNPYNDGLKYNEKFIGKAILTSDKSSSTAYMQLSSLTSEDSAVYYCTKEGLFYVFDYWGQGTSVTVSS
VL: QIVLTQSPAIMSASPGEKVTMTCSATSSLSYMHWYQQKSGTSPKRWIYDSSKLASGVPVRFSGSGSGTSYSLTISSMEAEDAATYFCQWWRSDLPTFGAGTKLELKR
B6: Mutation 1-16 (antibody, V domains shown)
VH: EVQLQQPGPELVKPGASVKMSCKASGYTFTSSVIHWVRQKPGQGLEWIGYMNPYNDGLKYNEKFIGKAILTSDKSSSTAYMQLSSLTSEDSAVYYCTREGLFYVMDYWGQGTSVTVSS
VL: QIVLTQSPAIMSASPGEKVTMTCSATSSLSYMHWYQQKSGTSPKRWIYDTSKLASGVPVRFSGSGSGTSYSLTISSMEAEDAATYFCQWWRSDLPTFGAGTKLELKR
B7: Mutation 1-9 (antibody, V domains shown)
VH: EVQLQQPGPELVKPGASVKMSCKASGYTFTSTVIHWVRQKPGQGLEWIGYMNPYNDGLKYNEKFIGKAILTSDKSSSTAYMQLSSLTSEDSAVYYCTREGLFYVFDYWGQGTSVTVSS
VL: QIVLTQSPAIMSASPGEKVTMTCSATSSISYMHWYQQKSGTSPKRWIYDSSKLASGVPVRFSGSGSGTSYSLTISSMEAEDAATYFCQYWRSDLPTFGAGTKLELKR
B8: Mutation 1-11 (antibody, V domains shown)
VH: EVQLQQPGPELVKPGASVKMSCKASGYTFTSYVIHWVRQKPGQGLEWIGYMNPYNDGLKYNEKFIGKAILTSDKSSSTAYMQLSSLTSEDSAVYYCTKEGLFYVFDYWGQGTSVTVSS
VL: QIVLTQSPAIMSASPGEKVTMTCSATSSVSYMHWYQQKSGTSPKRWIYDSSKLASGVPVRFSGSGSGTSYSLTISSMEAEDAATYFCQQWRSDLPTFGAGTKLELKR
B9: Mutation 1-6 (antibody, V domains shown)
VH: EVQLQQPGPELVKPGASVKMSCKASGYTFTSTVIHWVRQKPGQGLEWIGYMNPYNDGIKYNEKFIGKAILTSDKSSSTAYMQLSSLTSEDSAVYYCTKEGLFYVMDYWGQGTSVTVSS
VL: QIVLTQSPAIMSASPGEKVTMTCSATSSISYMHWYQQKSGTSPKRWIYDTSKLASGVPVRFSGSGSGTSYSLTISSMEAEDAATYFCQYWRSDLPTFGAGTKLELKR
B10: Mutation 1-5 (antibody, V domains shown)
VH: EVQLQQPGPELVKPGASVKMSCKASGYTFTSYVIHWVRQKPGQGLEWIGYMNPYNDGIKYNEKFIGKAILTSDKSSSTAYMQLSSLTSEDSAVYYCTREGLFYVFDYWGQGTSVTVSS
VL: QIVLTQSPAIMSASPGEKVTMTCSATSSVSYMHWYQQKSGTSPKRWIYDSSKLASGVPVRFSGSGSGTSYSLTISSMEAEDAATYFCQQWRSDLPTFGAGTKLELKR
B11: Mutation 1-15 (antibody, V domains shown)
VH: EVQLQQPGPELVKPGASVKMSCKASGYTFTSTVIHWVRQKPGQGLEWIGYMNPYNDGIKYNEKFIGKAILTSDKSSSTAYMQLSSLTSEDSAVYYCTKEGLFYVFDYWGQGTSVTVSS
VL: QIVLTQSPAIMSASPGEKVTMTCSATSSISYMHWYQQKSGTSPKRWIYDSSKLASGVPVRFSGSGSGTSYSLTISSMEAEDAATYFCQYWRSDLPTFGAGTKLELKR
B12: Mutation 1-10 (antibody, V domains shown)
VH: EVQLQQPGPELVKPGASVKMSCKASGYTFTSSVIHWVRQKPGQGLEWIGYMNPYNDGIKYNEKFIGKAILTSDKSSSTAYMQLSSLTSEDSAVYYCTKEGLFYVMDYWGQGTSVTVSS
VL: QIVLTQSPAIMSASPGEKVTMTCSATSSLSYMHWYQQKSGTSPKRWIYDTSKLASGVPVRFSGSGSGTSYSLTISSMEAEDAATYFCQWWRSDLPTFGAGTKLELKR
B13: Mutation 1-12 (antibody, V domains shown)
VH: EVQLQQPGPELVKPGASVKMSCKASGYTFTSTVIHWVRQKPGQGLEWIGYMNPYNDGIKYNEKFIGKAILTSDKSSSTAYMQLSSLTSEDSAVYYCTREGLFYVMDYWGQGTSVTVSS
VL: QIVLTQSPAIMSASPGEKVTMTCSATSSISYMHWYQQKSGTSPKRWIYDTSKLASGVPVRFSGSGSGTSYSLTISSMEAEDAATYFCQYWRSDLPTFGAGTKLELKR

For the assay, the target named is DN-IV quality control recombinant protein (produced by the company) (dengue virus). Put plainly: BLI, antibody on AMC sensor.
For B1, the Kd is 0.478 nM, the koff was 0.000234 s⁻¹ and the kon turned out to be 490000 M⁻¹ s⁻¹.

Regarding B2, the Kd is 4.08 nM, the koff came out at 0.000172 s⁻¹ and the kon amounted to 42200 M⁻¹ s⁻¹.

As to B3, the Kd was determined as 3.47 nM, the koff was found to be 0.000151 s⁻¹ and the kon was 43500 M⁻¹ s⁻¹.

With B4, the dissociation constant (Kd) is 2.75 nM, the koff is 0.00012 s⁻¹ and the on-rate (kon) turned out to be 43600 M⁻¹ s⁻¹.

For B5, the Kd worked out at 0.652 nM, the koff stood at 0.00024 s⁻¹ and the kon was found to be 368000 M⁻¹ s⁻¹.

Take B6: the dissociation constant Kd is 3.38 nM, the dissociation rate constant (koff) was determined as 0.000124 s⁻¹ and the on-rate (kon) was found to be 36700 M⁻¹ s⁻¹.

With B7, the Kd came out at 0.66 nM, the koff is 0.000284 s⁻¹ and the kon stood at 430000 M⁻¹ s⁻¹.

Turning to B8, the dissociation constant Kd came to 0.725 nM, the koff came to 0.0003 s⁻¹ and the kon was 414000 M⁻¹ s⁻¹.

Regarding B9, the dissociation constant (Kd) was 0.499 nM, the koff stood at 0.000249 s⁻¹ and the kon was 499000 M⁻¹ s⁻¹.

B10: the Kd stood at 0.508 nM, the koff worked out at 0.000213 s⁻¹ and the kon is 419000 M⁻¹ s⁻¹.

Turning to B11, the Kd was found to be 3.79 nM, the koff turned out to be 0.00017 s⁻¹ and the kon stood at 44800 M⁻¹ s⁻¹.

For the molecule B12, the Kd was 2.65 nM, the koff amounted to 0.000129 s⁻¹ and the kon came to 48700 M⁻¹ s⁻¹.

Take B13: the Kd was determined as 2.86 nM, the koff turned out to be 0.000122 s⁻¹ and the association rate constant (kon) came to 42600 M⁻¹ s⁻¹.
